# Measurements taken from US20240117038A1 (Ablynx, published 2024).
# T1: human CX3CR1 (human, UniProt P49238 1-355)
# T1 construct: Overexpressed on CHO K1, Ba/F3 or HEK293T cells; also called huCX3CR1; hCX3CR1
# T1 sequence: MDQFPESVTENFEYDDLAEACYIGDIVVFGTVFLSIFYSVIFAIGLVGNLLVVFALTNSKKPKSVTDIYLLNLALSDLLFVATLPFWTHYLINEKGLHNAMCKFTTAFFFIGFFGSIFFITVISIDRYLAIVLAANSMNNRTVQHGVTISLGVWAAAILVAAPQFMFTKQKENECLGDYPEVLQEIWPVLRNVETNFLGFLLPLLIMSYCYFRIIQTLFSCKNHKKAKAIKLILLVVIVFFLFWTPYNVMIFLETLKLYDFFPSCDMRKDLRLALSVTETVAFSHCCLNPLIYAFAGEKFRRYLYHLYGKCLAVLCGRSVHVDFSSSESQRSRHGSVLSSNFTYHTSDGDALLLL
# B1: A041600035 (VHH)
# chain: DVQLVESGGGSVQPGGSLRLSCAASGSIFSSTAMAWYRQAPGKQRDLVAVISTVGITKYADSVKGRFTISRDNAKNTVYLQMNSLRPEDTALYYCTSDARRGWDTRYWGQGTLVTVSSGGGGSGGGSEVQLVESGGGSVQPGGSLRLSCAASGSIFSSTAMAWYRQAPGKQRDLVAVISTVGITKYADSVKGRFTISRDNAKNTVYLQMNSLRPEDTALYYCTSDARRGWDTRYWGQGTLVTVSSGGGGSGGGSEVQLVESGGGVVQPGGSLRLSCAASGFTFRSFGMSWVRQAPGKGPEWVSSISGSGSDTLYADSVKGRFTISRDNSKNTLYLQMNSLRPEDTALYYCTIGGSLSRSSQGTLVTVSSA
# notes: Trivalent ISVD construct (two anti-CX3CR1 ISVDs, one anti-albumin ISVD), C-terminal alanine included in the entry; also called 54A12_SO (E1D)-9GS-54A12_SO-9GS-ALB23002-A
# Key:
# human CX3CR1 [1] = biological target: T1, human CX3CR1; assay: MSD-SET in-solution affinity on cell expressed human CX3CR1, 30 uM HSA, geometric mean of N = 3
# Protocol: The affinity was determined on 3 independent assay occasions.
# MCAM = biological target: T2, MCAM (human, UniProt P43121 24-646); assay: membrane protein array validation: flow cytometry on unfixed cells expressing the protein, serial dilutions in buffer with 10% human serum albumin, fluorescently labeled secondary antibody that binds ISVDs
# T2 construct: whole, on cells; also called MUC18; cell surface glycoprotein MUC18
# human CX3CR1 [2] = biological target: T1, human CX3CR1; assay: cell-based or functional assay
binder,measurement,setting,value
B1,Kd,human CX3CR1 [1],0.13 nM
same,binding result,MCAM,no binding (tested: 20 ug/ml)
same,"arbitrary migration index (GM), classical monocytes of healthy donors, 625 pM",human CX3CR1 [2],1.15 fold change to media control
same,"arbitrary migration index (GM), classical monocytes of healthy donors, 2500 pM",human CX3CR1 [2],1.09 fold change to media control
same,"arbitrary migration index (GM), classical monocytes of healthy donors, 10000 pM",human CX3CR1 [2],1.05 fold change to media control
same,"arbitrary migration index (GM), classical monocytes of healthy donors, 40000 pM",human CX3CR1 [2],1.27 fold change to media control
same,"arbitrary migration index (GM), intermediate monocytes of healthy donors, 625 pM",human CX3CR1 [2],1.26 fold change to media control
same,"arbitrary migration index (GM), intermediate monocytes of healthy donors, 2500 pM",human CX3CR1 [2],1.14 fold change to media control
same,"arbitrary migration index (GM), intermediate monocytes of healthy donors, 10000 pM",human CX3CR1 [2],1.04 fold change to media control
same,"arbitrary migration index (GM), intermediate monocytes of healthy donors, 40000 pM",human CX3CR1 [2],1.13 fold change to media control
same,"arbitrary migration index (GM), non-classical monocytes of healthy donors, 625 pM",human CX3CR1 [2],1.05 fold change to media control
same,"arbitrary migration index (GM), non-classical monocytes of healthy donors, 2500 pM",human CX3CR1 [2],1.08 fold change to media control
same,"arbitrary migration index (GM), non-classical monocytes of healthy donors, 10000 pM",human CX3CR1 [2],0.82 fold change to media control
same,"arbitrary migration index (GM), non-classical monocytes of healthy donors, 40000 pM",human CX3CR1 [2],0.91 fold change to media control
